This is an account of results in patent US20180222961A1 (IMMATICS BIOTECHNOLOGIES, published 2018).

B1: RMTTQLLLL (peptide)
peptide: RMTTQLLLL
B2: VLQGLLRSL (peptide)
peptide: VLQGLLRSL
B3: RLLDFINVL (peptide)
peptide: RLLDFINVL
B4: ALQAFEFRV (peptide)
peptide: ALQAFEFRV
B5: ALFKAWAL (peptide)
peptide: ALFKAWAL
B6: KVVSVLYNV (peptide)
peptide: KVVSVLYNV
B7: VLLAGFKPPL (peptide)
peptide: VLLAGFKPPL
B8: ALMRLIGCPL (peptide)
peptide: ALMRLIGCPL
B9: TTYEGSITV (peptide)
peptide: TTYEGSITV
B10: YLVTKVVAV (peptide)
peptide: YLVTKVVAV
B11: SLGKHTVAL (peptide)
peptide: SLGKHTVAL
B12: PLPRPGAVL (peptide)
peptide: PLPRPGAVL
B13: KLFDTQQFL (peptide)
peptide: KLFDTQQFL
B14: VSSSLTLKV (peptide)
peptide: VSSSLTLKV
B15: ISVPAKTSL (peptide)
peptide: ISVPAKTSL
B16: TLLKALLEI (peptide)
peptide: TLLKALLEI
B17: SLLDLYQL (peptide)
peptide: SLLDLYQL
B18: FAHHGRSL (peptide)
peptide: FAHHGRSL
B19: ALIYNLVGI (peptide)
peptide: ALIYNLVGI
B20: DTDSSVHVQV (peptide)
peptide: DTDSSVHVQV
B21: GLLQELSSI (peptide)
peptide: GLLQELSSI
B22: RQPNILVHL (peptide)
peptide: RQPNILVHL
B23: STIPALHEI (peptide)
peptide: STIPALHEI
B24: IMFDDAIERA (peptide)
peptide: IMFDDAIERA
B25: SLLLPSIFL (peptide)
peptide: SLLLPSIFL
B26: FLIEELLFA (peptide)
peptide: FLIEELLFA
B27: GVATRVDAI (peptide)
peptide: GVATRVDAI
B28: YLTDLQVSL (peptide)
peptide: YLTDLQVSL
B29: SAIPFSMTL (peptide)
peptide: SAIPFSMTL
B30: SVTESTHHL (peptide)
peptide: SVTESTHHL
B31: YLEDTDRNL (peptide)
peptide: YLEDTDRNL
B32: SLPRFQVTL (peptide)
peptide: SLPRFQVTL
B33: YTFRYPLSL (peptide)
peptide: YTFRYPLSL
B34: TISSLTHEL (peptide)
peptide: TISSLTHEL
B35: YASEGVKQV (peptide)
peptide: YASEGVKQV
B36: RLWDWVPLA (peptide)
peptide: RLWDWVPLA
B37: HLLLKVLAF (peptide)
peptide: HLLLKVLAF
B38: NAMLRKVAV (peptide)
peptide: NAMLRKVAV
B39: QAKTHSTL (peptide)
peptide: QAKTHSTL
B40: HVKEKFLL (peptide)
peptide: HVKEKFLL
B41: VLKHKLDEL (peptide)
peptide: VLKHKLDEL
B42: LPKLAGLL (peptide)
peptide: LPKLAGLL
B43: TSHERLTTL (peptide)
peptide: TSHERLTTL
B44: EAMKRLSYI (peptide)
peptide: EAMKRLSYI
B45: DMKYKNRV (peptide)
peptide: DMKYKNRV
B46: ALKARTVTF (peptide)
peptide: ALKARTVTF
B47: SIKTKSAEM (peptide)
peptide: SIKTKSAEM
B48: TPKLRETSI (peptide)
peptide: TPKLRETSI
B49: LNKQKVTF (peptide)
peptide: LNKQKVTF
B50: VGREKKLAL (peptide)
peptide: VGREKKLAL
B51: DMKKAKEQL (peptide)
peptide: DMKKAKEQL
B52: DVKKKIKEV (peptide)
peptide: DVKKKIKEV
B53: QGLLRPVF (peptide)
peptide: QGLLRPVF
B54: MLRKIAVAA (peptide)
peptide: MLRKIAVAA
B55: LPRLKAFMI (peptide)
peptide: LPRLKAFMI
B56: MGSARVAEL (peptide)
peptide: MGSARVAEL
B57: SLRLKNVQL (peptide)
peptide: SLRLKNVQL
B58: MPNLRSVDL (peptide)
peptide: MPNLRSVDL
B59: ALKTTTTAL (peptide)
peptide: ALKTTTTAL
B60: MAAVKQAL (peptide)
peptide: MAAVKQAL
B61: YPKARLAF (peptide)
peptide: YPKARLAF

The target of one test is T1, HLA-A*02:01 (human).
T1 construct: also called peptide-receptive MHC molecules
Description: UV-exchange b2m ELISA; exchange-yield grade. In a few lines:
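Binding capacity is graded by how much β2m-containing, stabilised complex survives UV-induced loss of the placeholder peptide. An anti-β2m sandwich ELISA on streptavidin capture, calibrated with refolded monomers (15-500 ng/ml), measures this.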
In general terms: An ELISA detects its analyte on a solid surface through an enzyme-linked reagent.
With B1, the peptide exchange yield was in the range of 50 to 75%.
On to B2, for which the peptide exchange yield is greater than 75%.
With B3, the peptide exchange yield is greater than 75%.
In turn, B4 came in with a peptide exchange yield greater than 75%.
B5 returned a peptide exchange yield greater than 75%.
B6 gave a peptide exchange yield greater than 75%.
Still for that read-out and setting: in the case of B7 it was 10 to 20%; in that of B8, greater than 75%; in that of B9, greater than 75%.
B10 displayed a peptide exchange yield greater than 75%.
As to B11, the peptide exchange yield was 50 to 75%.
On to B12, for which the peptide exchange yield was in the range of 10 to 20%.
The same measure, in the same setting: with B13 the figure was greater than 75%; with B14, 10 to 20%.
Same read-out and setting: with B15 the figure was 10 to 20%.
B16 yielded a peptide exchange yield greater than 75%.
In the case of B17, the peptide exchange yield lay in the range of 20 to 50%.
On to B18, for which the peptide exchange yield fell in the range of 10 to 20%.
On the same count and under the same terms, with B19 the figure was greater than 75%.
Still for that read-out and setting: in the case of B20 it was 10 to 20%; in that of B21, greater than 75%; in that of B22, 20 to 50%.
Still for that read-out and setting: with B23 the figure was 50 to 75%; with B24, greater than 75%.
In the case of B25, the peptide exchange yield was greater than 75%.
The same measure, in the same setting: in the case of B26 it was greater than 75%; in that of B27, 20 to 50%; in that of B28, greater than 75%.
B29 came in with a peptide exchange yield of 50 to 75%.
Same read-out and setting: with B30 the figure was 50 to 75%; with B31, greater than 75%.
On the same count and under the same terms, in the case of B32 it was greater than 75%; in that of B33, 50 to 75%.
The same measure, in the same setting: in the case of B34 it was greater than 75%; in that of B35, 50 to 75%; in that of B36, greater than 75%.

The target in a further test is T2, human recombinant HLA-B*08:01 and b2m (human).
T2 construct: expressed in E. coli and purified; stability of the peptide-MHC complex read as b2m associated with the heavy chain over time at 37 C
Description: pMHC dissociation assay at 37 C; mean half-life grade. How it is done:
Peptide-MHC stability assays for HLA-B*08:01 peptides were performed. The data were obtained using a proximity based, homogenous, real-time assay in order to measure the dissociation of peptides from HLA class I molecules. First, human recombinant HLA-B*08:01 and b2m were expressed in E. coli and purified in a series of liquid chromatography based steps (Ferre et al., 2003; Ostergaard et al., 2001). Then, the stability of a peptide-MHC complex (pMHC) was determined by measuring the amount of b2m associated with the MHC heavy chain over time at 37° C. (Harndahl et al., 2012). The stability of each pMHC, expressed as the half life of b2m associated with the respective heavy chain, was calculated by fitting the data to a one-phase dissociation equation.
With B37, the “mean half-life (T1/2) of peptide-MHC complex” value (“mean half-life” below) fell in the range of 4 to 6 h.
B38: the “mean half-life” value was 2 to 4 h.
On the same count and under the same terms, in the case of B39 it was 2 to 4 h; in that of B40, 4 to 6 h.
On the same count and under the same terms, in the case of B41 it was 2 to 4 h; in that of B42, 2 to 4 h.
Still for that read-out and setting: in the case of B43 it was 4 to 6 h.
As to B44, the “mean half-life” value was in the range of 2 to 4 h.
With B45, the “mean half-life” value lay in the range of 2 to 4 h.
Same read-out and setting: with B46 the figure was 6 to 10 h; with B47, 6 to 10 h; with B48, 4 to 6 h.
On the same count and under the same terms, with B49 the figure was greater than 10 h.
On the same count and under the same terms, with B50 the figure was 4 to 6 h.
Take B51: the “mean half-life” value was 2 to 4 h.
Same read-out and setting: with B52 the figure was 2 to 4 h.
As to B53, the “mean half-life” value lay within 4 to 6 h.
Still for that read-out and setting: with B54 the figure was 2 to 4 h; with B55, 4 to 6 h.
The same measure, in the same setting: with B56 the figure was 4 to 6 h; with B57, 2 to 4 h; with B58, 4 to 6 h.
Still for that read-out and setting: in the case of B59 it was 2 to 4 h.
As to B60, the “mean half-life” value lay within 4 to 6 h.
As to B61, the “mean half-life” value lay within 6 to 10 h.
